# Reference: the supplement of paper PMC11246515
# ± gives the standard deviation of the averaged measurements.
# Experiment: total protein half-life in vivo (active degradation + dilution); higher = more stable protein
# [1] = E. coli NCM3722 delta-clpP delta-lon delta-hslV, growth: N-lim chemostat, doubling time 6 h
# [2] = E. coli NCM3722 delta-clpP, growth: N-lim chemostat, doubling time 6 h
# [3] = E. coli NCM3722 delta-hslV, growth: N-lim chemostat, doubling time 6 h
# [4] = E. coli NCM3722 delta-lon, growth: N-lim chemostat, doubling time 6 h
# [5] = E. coli NCM3722 delta-smpB, growth: N-lim chemostat, doubling time 6 h
# [6] = wild type E. coli NCM3722, growth: C-lim chemostat, doubling time 3 h
# [7] = wild type E. coli NCM3722, growth: C-lim chemostat, doubling time 6 h
# [8] = wild type E. coli NCM3722, growth: C-lim chemostat, doubling time 12 h
# [9] = wild type E. coli NCM3722, growth: N-lim chemostat, doubling time 6 h
# [10] = wild type E. coli NCM3722, growth: N-lim chemostat, doubling time 12 h
# [11] = wild type E. coli NCM3722, growth: P-lim chemostat, doubling time 6 h
# [12] = wild type E. coli NCM3722, growth: P-lim chemostat, doubling time 12 h
Sequence,total protein half-life in vivo [1],total protein half-life in vivo [2],total protein half-life in vivo [3],total protein half-life in vivo [4],total protein half-life in vivo [5],total protein half-life in vivo [6],total protein half-life in vivo [7],total protein half-life in vivo [8],total protein half-life in vivo [9],total protein half-life in vivo [10],total protein half-life in vivo [11],total protein half-life in vivo [12]
MDNLDVICIGAAIVDIPLQPVSKNIFDVDSYPLERIAMTTGGDAINEATIISRLGHRTALMSRIGKDAAGQFILDHCRKENIDIQSLKQDVSIDTSINVGLVTEDGERTFVTNRNGSLWKLNIDDVDFARFSQAKLLSLASIFNSPLLDGKALTEIFTQAKARQMIICADMIKPRLNETLDDICEALSYVDYLFPNFAEAKLLTGKETLDEIADCFLACGVKTVVIKTGKDGCFIKRGDMTMKVPAVAGITAIDTIGAGDNFASGFIAALLEGKNLRECARFANATAAISVLSVGATTGVKNRKLVEQLLEEYEG,4.78 h,4.22 h,5.06 ± 0.82 h,4.44 ± 0.44 h,4.11 ± 0.23 h,3.18 ± 0.49 h,5.08 ± 0.33 h,10.1 ± 0.27 h,4.39 ± 0.065 h,7.58 ± 0.17 h,3.97 h,7.77 ± 1.9 h
MDNVELSPATRWGMIATGLLQGLVCYLLIAWLSGKNHSWIVYGVPATVAFSSVLLFSVISFKQKRLWGWLALVFIATLGMSGWLKWQTDGMNPWRAEKALWDFGCYLLLMAMLLLPWIQQSLRIRNDSSRYRYFYQSVWHNVLILLVIFLANGLTWLVLLLWSELFKLVGITFFNTLFFATDWFIYLTLGLVTALAVILARTQSRLIDSIQKLFTLIATGLLPLVSLLTLMFIITLPFTGLSAISRHISAAGLLLTLAFLQLILMAIVRDPQKASLPWTGPLRCLIKTALLVAPLYVFVAAWALWLRVAQYGWTVDRLQGVLAVLVLLVWSLGYFVSIVWRKGQNPVVLQGKVNLAVSLLVLVILVLLNSPVLDSMRISVNSHMARYQSGKNTSDQVTIYMLEQSGRYGRAALESLKSDAGFMKDPKRARDLLMALDGEQHLQQQVSEKVLADNVLIAPGSVKPDATFWSALIQDRYNVMTCIEKDACVLVEQDLNSDGQAERILFAFNDDRVIVYGFDSDRKEWDALDMSLLPNEITKEKLLTAAKDGKLGTKPKAWRDLVVDGERLNVNLNE,4.79 h,3.51 h,3.21 h,3.27 h,2.97 ± 0.52 h,3.78 h,3.86 ± 0.18 h,6.23 h,,,,3.39 h
MDQALLDGGYRCYTGEKIDVYFNTAICQHSGNCVRGNGKLFNLKRKPWIMPDEVDVATVVKVIDTCPSGALKYRHK [P0AF59],5.57 ± 0.28 h,5.03 h,5.21 ± 0.78 h,6.02 ± 0.5 h,4.29 ± 0.66 h,1.83 h,,8.02 h,5.6 ± 1 h,8.71 ± 1.1 h,,10.5 ± 0.21 h
MDQIRLTHLRQLEAESIHIIREVAAEFSNPVMLYSIGKDSSVMLHLARKAFYPGTLPFPLLHVDTGWKFREMYEFRDRTAKAYGCELLVHKNPEGVAMGINPFVHGSAKHTDIMKTEGLKQALNKYGFDAAFGGARRDEEKSRAKERIYSFRDRFHRWDPKNQRPELWHNYNGQINKGESIRVFPLSNWTEQDIWQYIWLENIDIVPLYLAAERPVLERDGMLMMIDDNRIDLQPGEVIKKRMVRFRTLGCWPLTGAVESNAQTLPEIIEEMLVSTTSERQGRVIDRDQAGSMELKKRQGYF,5.8 ± 1.9 h,3.7 ± 0.045 h,1.49 ± 0.57 h,1.35 ± 0.17 h,1.29 ± 0.12 h,1.58 ± 0.062 h,1.94 ± 0.21 h,2.88 ± 0.15 h,1.206 ± 0.0024 h,1.44 ± 0.29 h,1.46 ± 0.23 h,2.57 ± 0.54 h
MDQKQIEEIVRSVMASMGQAAPAPSEAKCATTNCAAPVTSESCALDLGSAEAKAWIGVENPHRADVLTELRRSTVARVCTGRAGPRPRTQALLRFLADHSRSKDTVLKEVPEEWVKAQGLLEVRSEISDKNLYLTRPDMGRRLCAEAVEALKAQCVANPDVQVVISDGLSTDAITVNYEEILPPLMAGLKQAGLKVGTPFFVRYGRVKIEDQIGEILGAKVVILLVGERPGLGQSESLSCYAVYSPRMATTVEADRTCISNIHQGGTPPVEAAAVIVDLAKRMLEQKASGINMTR,5.05 ± 0.91 h,3.65 ± 0.13 h,3.19 ± 0.053 h,4.21 ± 0.95 h,3.11 ± 0.17 h,2.6 ± 0.1 h,5.43 ± 0.85 h,8.48 ± 0.82 h,3.41 ± 0.32 h,4.31 ± 0.15 h,4.69 ± 0.096 h,9.58 ± 0.56 h
MDRDQTNSSLFNDDPVLHATWLYYQEGKSQTEVAAIMGVSRVTVVKYLQTARENGLVHINLDVNVFGSIDAALQIRDKFNLQRVIIVPDGEHAGKRDDTKLMRTRLSRAGGMYLNQVIENGDVLGVAWGRTIHQMSKTMTPKSCKNVTVIQMLGSMPSQPDLTIIESSSQIAYKLSGRVASLHVPAVVSSARLAMELQAEPIIRSNFDVLTRCTKAFFVVGNALDENPLIRVGVLNKKEMQTYRDLGAVGVICGRFYDKEGMPVVADVDQRILGISLAQLRQIERKIFLAGGERGYDATLGALLGGYVTDLIVDEGTAEFLLACELPH,7.27 ± 0.75 h,6.31 ± 0.21 h,6.85 ± 0.93 h,6.37 ± 0.93 h,5.92 ± 0.29 h,3.03 ± 0.26 h,6.27 ± 0.17 h,11.5 ± 2.3 h,5.82 ± 0.46 h,11.9 ± 0.26 h,5.93 ± 0.12 h,12 ± 0.53 h
MDRFPRSDSIVQPRAGLQTYMAQVYGWMTVGLLLTAFVAWYAANSAAVMELLFTNRVFLIGLIIAQLALVIVLSAMIQKLSAGVTTMLFMLYSALTGLTLSSIFIVYTAASIASTFVVTAGMFGAMSLYGYTTKRDLSGFGNMLFMALIGIVLASLVNFWLKSEALMWAVTYIGVIVFVGLTAYDTQKLKNMGEQIDTRDTSNLRKYSILGALTLYLDFINLFLMLLRIFGNRR [P0AAC4],,3.08 h,,2.51 h,2.75 h,2.15 ± 0.5 h,2.98 h,6.02 h,3.09 h,5.33 h,3.85 ± 0.28 h,6.88 ± 0.24 h
MDRIIEKLDHGWWVVSHEQKLWLPKGELPYGEAANFDLVGQRALQIGEWQGEPVWLVQQQRRHDMGSVRQVIDLDVGLFQLAGRGVQLAEFYRSHKYCGYCGHEMYPSKTEWAMLCSHCRERYYPQIAPCIIVAIRRDDSILLAQHTRHRNGVHTVLAGFVEVGETLEQAVAREVMEESGIKVKNLRYVTSQPWPFPQSLMTAFMAEYDSGDIVIDPKELLEANWYRYDDLPLLPPPGTVARRLIEDTVAMCRAEYE,,5.5 ± 1.5 h,5.52 ± 2 h,4.5929 ± 0.0003 h,4.57 ± 0.72 h,3.06 ± 1.1 h,5.09 ± 0.28 h,11.1 ± 0.68 h,4.5 ± 0.24 h,6.936 ± 0.055 h,5.97 ± 0.23 h,11.17 ± 0.051 h
MDRRRFIKGSMAMAAVCGTSGIASLFSQAAFAADSDIADGQTQRFDFSILQSMAHDLAQTAWRGAPRPLPDTLATMTPQAYNSIQYDAEKSLWHNVENRQLDAQFFHMGMGFRRRVRMFSVDPATHLAREIHFRPELFKYNDAGVDTKQLEGQSDLGFAGFRVFKAPELARRDVVSFLGASYFRAVDDTYQYGLSARGLAIDTYTDSKEEFPDFTAFWFDTVKPGATTFTVYALLDSASITGAYKFTIHCEKSQVIMDVENHLYARKDIKQLGIAPMTSMFSCGTNERRMCDTIHPQIHDSDRLSMWRGNGEWICRPLNNPQKLQFNAYTDNNPKGFGLLQLDRDFSHYQDIMGWYNKRPSLWVEPRNKWGKGTIGLMEIPTTGETLDNIVCFWQPEKAVKAGDEFAFQYRLYWSAQPPVHCPLARVMATRTGMGGFSEGWAPGEHYPEKWARRFAVDFVGGDLKAAAPKGIEPVITLSSGEAKQIEILYIEPIDGYRIQFDWYPTSDSTDPVDMRMYLRCQGDAISETWLYQYFPPAPDKRQYVDDRVMS,6.6 ± 0.085 h,6.09 ± 0.27 h,5.73 ± 0.087 h,5.99 ± 0.14 h,5.86 ± 0.28 h,3.22 ± 0.084 h,6.205 ± 0.046 h,12.5 ± 1.2 h,6.44 ± 0.42 h,12.6 ± 0.7 h,6.71 ± 0.95 h,12.628 ± 0.0049 h
MDSARALIARGWGVSLVSRCLRVSRAQLHVILRRTDDWMDGRRSRHTDDTDVLLRIHHVIGELPTYGYRRVWALLRRQAELDGMPAINAKRVYRIMRQNALLLERKPAVPPSKRAHTGRVAVKESNQRWCSDGFEFCCDNGERLRVTFALDCCDREALHWAVTTGGFNSETVQDVMLGAVERRFGNDLPSSPVEWLTDNGSCYRANETRQFARMLGLEPKNTAVRSPESNGIAESFVKTIKRDYISIMPKPDGLTAAKNLAEAFEHYNEWHPHSALGYRSPREYLRQRACNGLSDNRCLEI [P0CF53],5.39 ± 1.7 h,,,,,,,,,,,
MDSHTLIQALIYLGSAALIVPIAVRLGLGSVLGYLIAGCIIGPWGLRLVTDAESILHFAEIGVVLMLFIIGLELDPQRLWKLRAAVFGCGALQMVICGGLLGLFCMLLGLRWQVAELIGMTLALSSTAIAMQAMNERNLMVTQMGRSAFAVLLFQDIAAIPLVAMIPLLATSSASTTMGAFALSALKVAGALVLVVLLGRYVTRPALRFVARSGLREVFSAVALFLVFGFGLLLEEVGLSMAMGAFLAGVLLASSEYRHALESDIEPFKGLLLGLFFIGVGMSIDFGTLLENPLRIVILLLGFLIIKIAMLWLIARPLQVPNKQRRWFAVLLGQGSEFAFVVFGAAQMANVLEPEWAKSLTLAVALSMAATPILLVILNRLEQSSTEEAREADEIDEEQPRVIIAGFGRFGQITGRLLLSSGVKMVVLDHDPDHIETLRKFGMKVFYGDATRMDLLESAGAAKAEVLINAIDDPQTNLQLTEMVKEHFPHLQIIARARDVDHYIRLRQAGVEKPERETFEGALKTGRLALESLGLGPYEARERADVFRRFNIQMVEEMAMVENDTKARAAVYKRTSAMLSEIITEDREHLSLIQRHGWQGTEEGKHTGNMADEPETKPSS,,7.26 ± 1 h,6.68 ± 1.4 h,6.07 ± 0.42 h,6.12 ± 0.22 h,3.62 ± 0.14 h,6.07 ± 0.45 h,13.1 ± 0.2 h,6.452 ± 0.033 h,11.9 ± 1.1 h,6.64 ± 0.37 h,12.2 ± 1.2 h
MDSSFTPIEQMLKFRASRHEDFPYQEILLTRLCMHMQSKLLENRNKMLKAQGINETLFMALITLESQENHSIQPSELSCALGSSRTNATRIADELEKRGWIERRESDNDRRCLHLQLTEKGHEFLREVLPPQHNCLHQLWSALSTTEKDQLEQITRKLLSRLDQMEQDGVVLEAMS [P0ACR9],6.37 ± 0.21 h,6.705 ± 0.017 h,5.82 ± 1 h,5.39 ± 0.61 h,4.81 ± 0.11 h,2.7 ± 0.27 h,5.49 ± 0.42 h,11 ± 0.57 h,4.78 ± 0.44 h,7.04 ± 0.45 h,4.86 ± 0.51 h,9.8 ± 0.2 h
MDTKKIFKHIPWVILGIIGAFCLAVVALRRGEHISALWIVVASVSVYLVAYRYYSLYIAQKVMKLDPTRATPAVINNDGLNYVPTNRYVLFGHHFAAIAGAGPLVGPVLAAQMGYLPGTLWLLAGVVLAGAVQDFMVLFISSRRNGASLGEMIKEEMGPVPGTIALFGCFLIMIIILAVLALIVVKALAESPWGVFTVCSTVPIALFMGIYMRFIRPGRVGEVSVIGIVLLVASIYFGGVIAHDPYWGPALTFKDTTITFALIGYAFVSALLPVWLILAPRDYLATFLKIGVIVGLALGIVVLNPELKMPAMTQYIDGTGPLWKGALFPFLFITIACGAVSGFHALISSGTTPKLLANETDARFIGYGAMLMESFVAIMALVAASIIEPGLYFAMNTPPAGLGITMPNLHEMGGENAPIIMAQLKDVTAHAAATVSSWGFVISPEQILQTAKDIGEPSVLNRAGGAPTLAVGIAHVFHKVLPMADMGFWYHFGILFEALFILTALDAGTRSGRFMLQDLLGNFIPFLKKTDSLVAGIIGTAGCVGLWGYLLYQGVVDPLGGVKSLWPLFGISNQMLAAVALVLGTVVLIKMKRTQYIWVTVVPAVWLLICTTWALGLKLFSTNPQMEGFFYMASQYKEKIANGTDLTAQQIANMNHIVVNNYTNAGLSILFLIVVYSIIFYGFKTWLAVRNSDKRTDKETPYVPIPEGGVKISSHH,5.48 ± 0.6 h,,4.43 h,4.19 ± 0.26 h,5.39 ± 0.18 h,> 4 h,4.24 h,6.86 h,5.42 ± 2.2 h,9.16 ± 0.46 h,5.57 ± 0.48 h,8.62 ± 0.6 h
